Measurements reported in patent US20070020252A1, “Modified protease inhibitors” (priority 2003, published 2007).

Legend:
[1] = Pharmacokinetic study in mice: plasma clearance of 125I-labeled protein, SEC of plasma; assay type: in vivo
Experimental: The pharmacokinetics of DX-890 and the PEGylated DX-890 compounds were measured by iodinating the proteins on available tyrosine residues and measuring their clearance in mice.
Samples were radio-iodinated by the indirect method using the IODO-GEN reagent (method from Pierce Chem. Co., and first described by Chizzonite [J Immunol 147, 1548-1556, 1991; J. Immunol 148, 3117-3124, 1992]). Samples were incubated with the ^125I-NaI solution for 9 min at which time tyrosine (10 mg/mL, a saturated solution) was added to quench the reaction. After about 15 min a 5 μl aliquot was removed as a standard for counting.
For each labeling reaction, the ^125I-labeled material (approx. 0.6 mL) was purified using a single 5 mL D-salt 1800 polyacrylamide column (Pierce Chem. Co.). […] Samples were applied in and columns were eluted with a series of 0.3 mL aliquots. Recovery of applied activity in all protein fractions was >75% and the total recovery of applied activity was >90%. The fractions containing peak levels of labeled protein were pooled for animal injections. To prepare the injectate, the pool was diluted with Tris buffer (pH 7.5) so that the 100 μL injection volume contained about 10 μg of labeled material.
Time of injection and time of sampling were recorded. At sacrifice, samples of 0.5 ml were collected into anticoagulant (0.02 ml EDTA). Cells were spun down and separated from plasma, and cells were stored at −20° C. Plasma was divided into two aliquots, one frozen and one stored at 4° C. for immediate analysis. Analysis included gamma counting of all samples. In addition, analysis was performed for two plasma samples (N=2) at each time point, i.e., 0, and 30 minutes, for ^125I-DX-890, and 0, 30 minutes, and 24 h for the ^125I-DX-890-PEG conjugates. A SEC-HPLC Superose-12 column was used with an in-line radiation detector (FIGS. 4-7).
The solid curves through the sets of data plotted in FIG. 3 are four-parameter, least-squares fits of Equation 3 to the data. Table 3 presents the values for % α Phase, α Phase Half-life, % β Phase, and β Phase Half-life extracted from the least squares fits to the in vivo clearance data set obtained for each of the four compounds tested in mice.

[2] = Pharmacokinetic study in rabbits: plasma clearance of 125I-labeled protein, SEC of plasma; assay type: in vivo, New Zealand White rabbits
Experimental: Pharmacokinetic properties of DX-890 and PEG-30-DX-890 (conjugation at pH 7.4) were measured by iodinating the proteins and measuring clearance of the radiolabel from circulation in rabbits. The two DX-890 preparations were iodinated with iodine-125 using the iodogen method. After radiolabeling, the two labeled protein preparations were purified from unbound label by size exclusion chromatography (SEC). Fractions from the SEC column having the highest radioactivity were pooled. The purified, radiolabeled preparations were characterized for specific activity by gamma counting and for purity by SEC using a Superose-12 column equipped with an in-line radiation detector.
New Zealand White rabbits (ca. 2.5 Kg) were used for clearance measurements, with one animal used for each of the two labeled protein preparations. The radiolabeled preparation was injected into the animal via an ear vein. One blood sample was collected per animal per time point with early time points at approximately 0, 2.5, 5, 7, 15, 30, 60, and 90 minutes post injection and later time points at 4, 8, 16, 24, 30, 48, 72, 96, 144, 168, and 192 hours post injection. Samples (about 0.5 mL) were collected into anticoagulant (EDTA) containing tubes. Cells were separated from the plasma fraction by centrifugation. The plasma fraction was divided into two aliquots. One plasma aliquot was stored at −70° C. and the other aliquot was kept at 4° C. for immediate analyse's. Sample analyses included radiation counting for clearance rate determinations and SEC chromatography to test for changes in the size distribution of radiolabeled material in vivo (stability).

[3] = Allometric extrapolation of β-phase half-life from mice and rabbits to humans; details: 70 Kg human, linear extrapolation from mice and rabbits
Description: Data on in vivo pharmacokinetic parameters obtained from small laboratory mammals (e.g. rodents, dogs, and monkeys) can be extrapolated to humans by interspecies scaling (summarized by Mahmood and Balian, Life Sciences 7: 579-585, 1996 and Clin Pharmacokinet 36:1-11, 1999). A simple allometric approach describes the relationship between bodyweight (W) and a pharmacokinetic parameter of interest (Y) in terms of the power function: Y=aW^b (Equation 4) where a and b are the empirically determined coefficient and exponent of the allometric equation, respectively. […] Further, of the three most important pharmacokinetic parameters (total body clearance, volume of distribution, and t1/2β) typically measured, t1/2β is least well predicted by Equation 4. With these caveats in mind, data presented in Tables 2 and 4 can be used to provide crude estimates of expected t1/2β in humans.
FIG. 10 presents data from Tables 2 and 4 plotted as log [Beta Phase Half-Live] vs log [Body Mass] for unmodified DX-890 (triangles) and mono-PEG30-DX-890 (circles). Linear extrapolations of the experimental data for mice (25 gm) and rabbits (2.5 Kg) to humans (70 Kg) are shown by the solid crosses in the figure. The extrapolated values for β-phase half-lives in humans are ˜5 hours for unmodified DX-890 and ˜14 days for mono-PEG30-DX-890. […]

[4] = biological target: T1, human neutrophil elastase (HNE) (Homo sapiens, UniProt P08246); details: description statement; cited from earlier work
T1 sequence (P08246 30-267): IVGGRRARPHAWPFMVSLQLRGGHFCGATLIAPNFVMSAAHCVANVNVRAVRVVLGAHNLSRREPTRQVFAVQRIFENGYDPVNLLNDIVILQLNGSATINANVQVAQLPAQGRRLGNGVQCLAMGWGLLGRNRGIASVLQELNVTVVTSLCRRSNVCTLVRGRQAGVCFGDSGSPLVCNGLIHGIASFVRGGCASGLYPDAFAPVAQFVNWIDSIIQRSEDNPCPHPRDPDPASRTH

[5] = tail vein injection, bi-exponential fit
[6] = ear vein injection, bi-exponential fit

DX-890: 56 amino acid Kunitz domain polypeptide derived from ITI-D2, inhibitor of human neutrophil elastase, produced in Pichia pastoris (EACNLPIVRGPCIAFFPRWAFDAVKGKCVLFPYGGCQGNGNKFYSEKECREYCGVP)
percentage cleared in the β phase [1]: about 15% | α phase half life [1]: about 1 min | β phase half life [1]: about 1 hr | material remaining in circulation ([1]; 30 minutes after injection): less than 20% | α half life ([1]; Table 4 summary): 1 min | β half life ([1]; Table 4 summary): 1.32 h | α Phase Clearance (%) [1, 5]: 84% | α Phase Half-life [1, 5]: 1.0 min | β Phase Clearance (%) [1, 5]: 16% | β Phase Half-life (hr) [1, 5]: 1.3 h | β Phase Half-life (min) [1, 5]: 79 min | in vivo stability, SEC analysis of plasma [2]: relatively rapid association of label with higher molecular weight plasma components | % α [2, 6]: 75% | % β [2, 6]: 25% | T1/2α [2, 6]: 24 s | T1/2β [2, 6]: 2.75 h | extrapolated β-phase half-life in humans [3]: ~5 h | Ki [4]: 4 pM
